Measured values as given in paper PMC6402988.

Biological target: rVSV-EBOV GPΔβ17-β18 (Zaire ebolavirus (EBOV)) (UniProt Q05320)

## ADI-15946 IgG (antibody)
  neutralization efficiency of rVSV-EBOV GPΔβ17-β18 compared to GPWT: 10 fold
